The test system of one series is tumour cell line LL/2. The experiment in a line: In vivo LL/2 tumour model in C57Bl/6 mice. To be noted: 200 mg/kg IP for 7 days. As to the method: More particularly, mice strain C57Bl/6 (male, 4-weeks, initial body weight˜20-22 g) were inoculated with tumour cell line LL/2, at S.C. 10^5 per mouse. After 14 days post-implantation, the mice were treated with D-TW or D-TW-Scrambled for 7 days (at 200 mg/kg), via intraperitoneal (IP) injection.

Series [1] has as its target T1, PD-1/PD-L1 interaction (Homo sapiens, UniProt Q9NZQ7). The series is described as follows: IL-2 production by PHA/PMA-activated Jurkat T cells co-cultured with recombinant human PD-L1 Fc (IL-2 ELISA). The arrangement: Fc; host or cells: Jurkat T cells (PD-1 side). Format: cell-based. The conditions noted are these: 1-10 μg/ml peptide, PD-L1 Fc 8 μg/ml, 37° C. for 48 hours; FIG. 2. As to the method: 5×10^4 Jurkat T cells were activated with 1 μg/ml of phytohemagglutinin (PHA) and 50 ng/ml of phorbol 12-myristate 13-acetate (PMA) and co-cultured with recombinant human PD-L1 Fc (8 μg/ml) plus 1-10 μg/ml of WT (FIG. 2A), 1-10 μg/ml of TF (FIG. 2B), or 1-10 μg/ml of combined WT and TF (FIG. 2C) peptide at 37° C. for 48 hours. Cell culture supernatant was harvested and interleukin-2 (IL-2) production from Jurkat T cells was assessed by IL-2 ELISA. The numbers shown above each bar in FIG. 2 represent IL-2 concentrations.
Target sequence in this assay (Q9NZQ7 19-238 limits assumed): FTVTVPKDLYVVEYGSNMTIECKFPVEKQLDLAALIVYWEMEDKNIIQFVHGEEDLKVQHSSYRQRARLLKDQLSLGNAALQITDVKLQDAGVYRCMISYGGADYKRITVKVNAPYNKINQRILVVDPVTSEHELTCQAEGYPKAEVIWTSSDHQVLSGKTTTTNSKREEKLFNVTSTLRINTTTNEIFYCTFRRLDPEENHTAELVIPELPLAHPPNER
For orientation: An ELISA detects its analyte on a solid surface through an enzyme-linked reagent.

For series [2], the target named is T2, human PD-L1 (PD-1/PD-L1 interaction) (Homo sapiens, UniProt Q9NZQ7).
T2 construct: Fc
T2 sequence (Q9NZQ7 19-238 limits assumed): as above
The experiment in a line: Competition ELISA: peptide blocking of recombinant human PD-1 Fc binding to plate-coated human PD-L1 Fc. To be noted: peptide 0.008 μg/ml to 10 μg/ml, human PD-1 Fc 10 ng/ml; FIG. 1. The protocol:
The binding of the WT or TF peptide to human PD-L1 was tested via competition ELISA. Varying concentrations of each peptide (0.008 μg/ml to 10 μg/ml) were mixed with a fixed concentration of recombinant human PD-1 Fc (10 ng/ml) and bound to a human PD-L1 Fc coated 96-well Immuno Maxisorp flat bottom plate. Binding was detected via a biotinylated anti-PD-1 antibody, streptavidin-horseradish peroxidase (HRP), and 3,3′,5,5′-Tetramethylbenzidine (TMB) substrate. Absorbance measurements were collected at 450 nm via a plate reader. The absorbance readings were plotted against the test peptide concentration.
More particularly, in this Example and referring to FIGS. 5A and 5B, WT represents SEQ ID NO:1; TF represents SEQ ID NO:2; ET represents SEQ ID NO:25; YT represents SEQ ID NO:28; and TW represents the reverse sequence of WT with D-amino acids, SEQ ID NO:34 (also referred to herein as “D-TW”). Different combination of such PD-L1 blocking peptides (3 and 10 μM) were mixed with recombinant human PD-1 Fc and bound to a human PD-L1 Fc coated 96-well Immuno Maxisorp flat bottom plate. Binding was detected via a biotinylated anti-PD-1 antibody, streptavidin-horseradish peroxidase (HRP), and 3,3′,5,5′-Tetramethylbenzidine (TMB) substrate. Absorbance measurements were collected at 450 nm via a plate reader. […]

Series [3] addresses T1, PD-1/PD-L1 interaction. The series is described as follows: IL-2 production by activated Jurkat T cells co-cultured with PD-L1-expressed U87 tumor cells (IL-2 ELISA). Format: cell-based. Also on record: endogenous in cells; host or cells: U87 tumor cells (PD-L1); Jurkat T cells (PD-1). To be noted: for IL-2 concentration: different peptide concentrations, 37° C. for 48 hours, FIGS. 3A-3C; for blocking of PD-1/PD-L1 interaction (summary of the foregoing assay results): summary of FIGS. 1-3, the combination is compared with a single test peptide treatment. As to the method: In this Example, 5×10^4 Jurkat T cells were activated with […] of PHA and 50 ng/ml of PMA and co-cultured with 3×10^5 PD-L1-expressed U87 tumor cells mixed with different concentrations of WT (FIG. 3A), TF (FIG. 3B), or combined WT and TF (FIG. 3C) peptide at 37° C. for 48 hours. Cell culture supernatants were harvested and IL-2 production from the Jurkat T cells was assessed by IL-2 ELISA. The numbers shown above each bar in FIGS. 3A-3C represent IL-2 concentrations. […] Moreover, as shown in FIGS. 3A-3C, as the concentrations of the test peptides were increased, an increase in IL-2 concentration was observed.
Target sequence in this assay (Q9NZQ7 19-290): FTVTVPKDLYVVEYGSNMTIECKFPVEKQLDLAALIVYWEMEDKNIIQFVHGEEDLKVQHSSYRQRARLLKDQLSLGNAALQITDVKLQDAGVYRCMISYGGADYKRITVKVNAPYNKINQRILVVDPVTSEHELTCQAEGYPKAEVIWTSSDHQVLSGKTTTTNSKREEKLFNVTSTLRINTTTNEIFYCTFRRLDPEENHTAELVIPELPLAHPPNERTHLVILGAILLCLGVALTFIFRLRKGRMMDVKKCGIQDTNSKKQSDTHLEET

On to `CSCC[C@@H](NC(=O)[C@@H](CO)NC(=O)[C@H]1CCCN1C(=O)[C@@H](CO)NC(=O)[C@@H](CC(N)=O)NC(=O)[C@@H](CCC(N)=O)NC(=O)[C@H](N)[C@H](C)O)C(=O)N[C@H](CCCNC(=N)N)C(=O)N[C@H](Cc1ccc(O)cc1)C(=O)N[C@H](Cc1c[nH]c2ccccc12)C(=O)O` [D-TW, TQNSPSMRYW], for which, in the series on tumour cell line LL/2, the toxicity to mice entry is recorded as “generally non-toxic”.
As for TAHPSPSPRSAGQF [TF], the IL-2 concentration result with PD-1/PD-L1 interaction [1] is listed as “yielded an increase in IL-2 concentration”. Moreover, the “percent (%) inhibition of PD-1/PD-L1 interaction” value in series [2] was “the percent (%) inhibition increased”. In addition, in the series with PD-1/PD-L1 interaction [3], the IL-2 concentration entry was “yielded an increase in IL-2 concentration” and the “blocking of PD-1/PD-L1 interaction (summary of the foregoing assay results)” value is “able to block PD-1/PD-L1 interaction”.
For the compound WYRMSPSNQT [WT], in series [2], the “percent (%) inhibition of PD-1/PD-L1 interaction” value is recorded as “the percent (%) inhibition increased”. In the series with PD-1/PD-L1 interaction [3], the IL-2 concentration entry was “yielded an increase in IL-2 concentration” and the “blocking of PD-1/PD-L1 interaction (summary of the foregoing assay results)” value was “able to block PD-1/PD-L1 interaction”.

Source of the values: patent US11384119B2, “Compositions and methods for inhibiting CD279 interactions” (priority 2015, dated 2022).
